In patent US20230365641:
Values joined by “and” are separate entries in the source; they are usually repeats but may differ in a detail not shown here. Identical values can stand only once.

B1: recombinant human MMP-7 (protein)
chain: YSLFPNSPKWTSKVVTYRIVSYTRDLPHITVDRLVSKALNMWGKEIPLHFRKVVWGTADIMIGFARGAHGDSYPFDGPGNTLAHAFAPGTGLGGDAHFDEDERWTDGSSLGINFLYAATHELGHSLGMGHSSDPNAVMYPTYGNGDPQNFKLSQDDIKGIQKLYGKRSNSRKK
B2: recombinant human MMP-2 (protein)
chain: YNFFPRKPKWDKNQITYRIIGYTPDLDPETVDDAFARAFQVWSDVTPLRFSRIHDGEADIMINFGRWEHGDGYPFDGKDGLLAHAFAPGTGVGGDSHFDDDELWTLGEGQVVRVKYGNADGEYCKFPFLFNGKEYNSCTDTGRSDGFLWCSTTYNFEKDGKYGFCPHEALFTMGGNAEGQPCKFPFRFQGTSYDSCTTEGRTDGYRWCGTTEDYDRDKKYGFCPETAMSTVGGNSEGAPCVFPFTFLGNKYESCTSAGRSDGKMWCATTANYDDDRKWGFCPDQGYSLFLVAAHEFGHAMGLEHSQDPGALMAPIYTYTKNFRLSQDDIKGIQELYGASPDIDLGTGPTPTLGPVTPEICKQDIVFDGIAQIRGEIFFFKDRFIWRTVTPRDKPMGPLLVATFWPELPEKIDAVYEAPQEEKAVFFAGNEYWIYSASTLERGYPKPLTSLGLPPDVQRVDAAFNWSKNKKTYIFAGDKFWRYNEVKKKMDPGFPKLIADAWNAIPDNLDAVVDLQGGGHSYFFKGAYYLKLENQSLKSVKFGSIKSDWLGC

Sequence of TC46 (chain, as listed by the source, chain 1 of 3, other chains not shown): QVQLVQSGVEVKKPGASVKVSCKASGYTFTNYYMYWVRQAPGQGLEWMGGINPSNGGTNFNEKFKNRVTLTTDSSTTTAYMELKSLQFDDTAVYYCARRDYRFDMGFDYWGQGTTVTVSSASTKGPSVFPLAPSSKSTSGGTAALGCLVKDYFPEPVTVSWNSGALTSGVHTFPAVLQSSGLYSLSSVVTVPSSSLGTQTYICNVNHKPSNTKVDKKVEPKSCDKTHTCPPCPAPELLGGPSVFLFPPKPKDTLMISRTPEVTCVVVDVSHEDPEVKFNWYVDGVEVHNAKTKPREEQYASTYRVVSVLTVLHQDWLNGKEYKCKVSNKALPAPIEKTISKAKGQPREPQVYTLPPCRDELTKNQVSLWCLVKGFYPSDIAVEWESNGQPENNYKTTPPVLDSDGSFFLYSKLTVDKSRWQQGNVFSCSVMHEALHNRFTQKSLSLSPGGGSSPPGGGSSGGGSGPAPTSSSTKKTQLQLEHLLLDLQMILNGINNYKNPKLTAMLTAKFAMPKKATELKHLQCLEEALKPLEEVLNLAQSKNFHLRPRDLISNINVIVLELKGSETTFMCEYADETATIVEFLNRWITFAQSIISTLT
Sequence of TC46 (chain, as listed by the source, chain 2 of 3, other chains not shown): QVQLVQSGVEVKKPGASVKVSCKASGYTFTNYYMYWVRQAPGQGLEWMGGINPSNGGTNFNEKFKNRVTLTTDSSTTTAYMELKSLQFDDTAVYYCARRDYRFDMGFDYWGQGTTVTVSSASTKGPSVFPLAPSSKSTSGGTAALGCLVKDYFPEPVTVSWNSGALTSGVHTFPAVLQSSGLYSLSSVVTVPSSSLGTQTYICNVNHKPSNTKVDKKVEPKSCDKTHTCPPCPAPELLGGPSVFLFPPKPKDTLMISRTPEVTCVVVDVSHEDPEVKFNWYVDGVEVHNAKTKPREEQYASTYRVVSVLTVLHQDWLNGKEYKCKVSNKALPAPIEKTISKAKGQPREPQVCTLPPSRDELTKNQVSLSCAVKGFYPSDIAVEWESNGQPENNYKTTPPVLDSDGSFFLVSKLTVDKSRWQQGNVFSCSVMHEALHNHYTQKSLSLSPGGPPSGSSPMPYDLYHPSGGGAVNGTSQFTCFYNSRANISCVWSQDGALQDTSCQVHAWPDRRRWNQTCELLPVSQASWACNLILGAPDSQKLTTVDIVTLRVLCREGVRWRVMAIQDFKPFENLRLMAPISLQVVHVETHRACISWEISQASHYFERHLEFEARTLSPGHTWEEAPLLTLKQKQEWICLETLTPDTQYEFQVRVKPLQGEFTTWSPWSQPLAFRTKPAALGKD
Sequence of TC47 (chain, as listed by the source, chain 1 of 3, other chains not shown): as the sequence (chain, as listed by the source, chain 1 of 3, other chains not shown) above
Sequence of TC47 (chain, as listed by the source, chain 2 of 3, other chains not shown): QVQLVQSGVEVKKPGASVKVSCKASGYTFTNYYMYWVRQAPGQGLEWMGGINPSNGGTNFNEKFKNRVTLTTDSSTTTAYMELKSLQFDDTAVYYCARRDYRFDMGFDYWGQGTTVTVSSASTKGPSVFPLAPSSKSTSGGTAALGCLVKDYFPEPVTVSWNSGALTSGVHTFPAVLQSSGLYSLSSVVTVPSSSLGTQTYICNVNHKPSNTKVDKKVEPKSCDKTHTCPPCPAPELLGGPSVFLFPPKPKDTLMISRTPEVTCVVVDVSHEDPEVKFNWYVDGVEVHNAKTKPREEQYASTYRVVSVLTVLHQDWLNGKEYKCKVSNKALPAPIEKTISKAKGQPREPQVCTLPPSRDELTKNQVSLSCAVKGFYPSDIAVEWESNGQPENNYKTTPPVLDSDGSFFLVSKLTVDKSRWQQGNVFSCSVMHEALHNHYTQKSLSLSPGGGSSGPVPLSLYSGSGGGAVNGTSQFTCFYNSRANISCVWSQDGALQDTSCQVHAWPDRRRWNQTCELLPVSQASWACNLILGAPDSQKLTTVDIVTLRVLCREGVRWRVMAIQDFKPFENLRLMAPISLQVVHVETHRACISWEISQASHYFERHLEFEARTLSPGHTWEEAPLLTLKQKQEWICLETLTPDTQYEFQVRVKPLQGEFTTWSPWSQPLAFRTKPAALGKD
Sequence of TC3 (chain, as listed by the source, chain 1 of 3, other chains not shown): as the sequence (chain, as listed by the source, chain 1 of 3, other chains not shown) above
Sequence of TC3 (chain, as listed by the source, chain 2 of 3, other chains not shown): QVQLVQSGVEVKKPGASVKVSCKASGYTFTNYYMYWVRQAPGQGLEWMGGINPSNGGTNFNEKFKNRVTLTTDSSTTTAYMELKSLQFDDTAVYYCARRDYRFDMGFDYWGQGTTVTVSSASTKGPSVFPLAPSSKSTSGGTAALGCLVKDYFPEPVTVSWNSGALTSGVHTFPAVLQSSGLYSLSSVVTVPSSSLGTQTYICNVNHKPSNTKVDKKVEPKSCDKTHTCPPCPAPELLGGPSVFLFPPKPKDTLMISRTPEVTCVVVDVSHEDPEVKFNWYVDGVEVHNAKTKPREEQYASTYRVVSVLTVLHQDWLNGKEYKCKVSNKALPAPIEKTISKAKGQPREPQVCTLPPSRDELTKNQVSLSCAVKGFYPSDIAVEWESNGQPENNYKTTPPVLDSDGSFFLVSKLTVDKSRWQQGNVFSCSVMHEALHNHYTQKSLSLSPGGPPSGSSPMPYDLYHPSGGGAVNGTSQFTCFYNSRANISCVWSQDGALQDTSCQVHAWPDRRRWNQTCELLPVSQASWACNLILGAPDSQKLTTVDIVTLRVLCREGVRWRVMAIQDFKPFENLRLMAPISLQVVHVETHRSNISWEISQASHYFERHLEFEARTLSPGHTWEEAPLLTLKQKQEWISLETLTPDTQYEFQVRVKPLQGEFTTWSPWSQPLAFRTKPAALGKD
Sequence of TC24 (chain, as listed by the source, chain 1 of 3, other chains not shown): as the sequence (chain, as listed by the source, chain 1 of 3, other chains not shown) above
Sequence of TC24 (chain, as listed by the source, chain 2 of 3, other chains not shown): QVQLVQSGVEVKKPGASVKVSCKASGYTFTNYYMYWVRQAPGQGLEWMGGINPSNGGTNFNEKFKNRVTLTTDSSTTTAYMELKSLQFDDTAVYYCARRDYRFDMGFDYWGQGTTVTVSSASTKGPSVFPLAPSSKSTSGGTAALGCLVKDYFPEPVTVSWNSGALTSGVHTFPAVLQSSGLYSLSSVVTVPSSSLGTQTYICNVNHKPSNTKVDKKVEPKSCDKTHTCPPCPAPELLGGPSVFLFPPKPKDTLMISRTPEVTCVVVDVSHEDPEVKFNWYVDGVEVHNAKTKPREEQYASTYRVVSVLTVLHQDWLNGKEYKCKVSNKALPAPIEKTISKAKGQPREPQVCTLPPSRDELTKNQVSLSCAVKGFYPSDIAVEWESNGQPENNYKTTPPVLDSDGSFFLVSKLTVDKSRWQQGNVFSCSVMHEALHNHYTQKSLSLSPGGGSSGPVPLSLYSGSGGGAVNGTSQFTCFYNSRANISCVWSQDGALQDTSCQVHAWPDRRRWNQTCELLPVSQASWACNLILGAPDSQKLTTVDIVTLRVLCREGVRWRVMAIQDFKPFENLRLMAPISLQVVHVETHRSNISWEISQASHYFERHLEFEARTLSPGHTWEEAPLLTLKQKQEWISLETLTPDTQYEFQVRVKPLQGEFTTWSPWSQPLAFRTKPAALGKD

Row | Protein | Est. kcat/KM (TC71) | Est. kcat/KM (TC57) | Est. kcat/KM (TC46) | Est. kcat/KM (TC47) | Est. kcat/KM (TC73) | Est. kcat/KM (TC68) | Est. kcat/KM (TC69) | Est. kcat/KM (TC24) | Est. kcat/KM (TC53) | Est. kcat/KM (TC3) | Est. kcat/KM (TC75) | Est. kcat/KM (TC74) | Est. kcat/KM (TC70)
1 | B1 | 19000 M⁻¹ s⁻¹ and 22000 M⁻¹ s⁻¹ | 13000 M⁻¹ s⁻¹ and 15000 M⁻¹ s⁻¹ | 13000 M⁻¹ s⁻¹ | 130000 M⁻¹ s⁻¹ | 71000 M⁻¹ s⁻¹ and 67000 M⁻¹ s⁻¹ | 13000 M⁻¹ s⁻¹ | 78000 M⁻¹ s⁻¹ | 140000 M⁻¹ s⁻¹ | 24000 M⁻¹ s⁻¹ and 23000 M⁻¹ s⁻¹ | 13000 M⁻¹ s⁻¹ | 18000 M⁻¹ s⁻¹ and 19000 M⁻¹ s⁻¹ |  | 
2 | B2 | 130000 M⁻¹ s⁻¹ and 140000 M⁻¹ s⁻¹ | 4000 M⁻¹ s⁻¹ and 4400 M⁻¹ s⁻¹ |  |  | 43000 M⁻¹ s⁻¹ and 41000 M⁻¹ s⁻¹ | 3800 M⁻¹ s⁻¹ | 51000 M⁻¹ s⁻¹ and 50000 M⁻¹ s⁻¹ |  | 4900 M⁻¹ s⁻¹ and 4700 M⁻¹ s⁻¹ |  | 120000 M⁻¹ s⁻¹ and 110000 M⁻¹ s⁻¹ | 9600 M⁻¹ s⁻¹ and 9800 M⁻¹ s⁻¹ | 11000 M⁻¹ s⁻¹
